Assay results published in the RNAGym collection of RNA variant scans (doi:10.7554/elife.90254).

B1: LINE1-full (parent)
chain: UACGUAGGUGGUUUUCCCCUGAUAGUGCUAAGGGGGCCUGGAAGUUUGGACUGGGCAGAGCUCAACACAGCGUGGCAAAGUGGCUGUGGCUAGACUGCCUCUCUGGAUUCCUCGUCACUCAGCAGGGCAUCUCUGAGAGAAAUGCC

Variants of: B1
Test: self-cleavage, relative activity (ratio to wild type); higher = more cleavage; in vitro, sequencing; the parent is a self-cleaving ribozyme

Variant	self-cleavage
UACGUAGGUGGUUUUCCCCUGAUAGUGCUAAGGUGGCCUGGAAGUUUGGACUGGGCAGAGCUCAACACAGCGUGGCAAAGUGGCUGUGGCUAGACUGCCUCUCUGGAUUCCUCGUCACUCAGCAGGGCAUCUCUGAGAGUAAUGCC	1.64
UACGUAGGUGGUUUUCCCCUGAUAGUGCUAAGGGGGCCUGGAAGUUUGGACUGGGCAGAGCUCAACACAGCGUGGCAAAGUGGCUGUGGCUAGACUGCCUCUCUGGAUUCCUCGACACUCAGCAGGGCAUCUCUGAGAGAAAAGCC	1.36
UACGUAGGUGGUUUUCCCCUGAUAGUGCUAAGGGGGCCUGGAAGUUUGGACUGGGCAGAGCUCAACACAGCAUGGCAAAGUGGCUGUGGCUAGACUGCCUCUCUGGGUUCCUCGUCACUCAGCAGGGCAUCUCUGAGAGAAAUGCC	1.36
UACGUAGGUGGUUUUCCCCUGAUAGUGCUAAGGGGGCCUGGAAGUUUGGACUGGGCAGAGCUCAACACAGCGUGGCAUAGUGGCUGUGGCUAGACUGCCUCUCUGGAUUCCUCGUCACACAGCAGGGCAUCUCUGAGAGAAAUGCC	1.82
UACGUAGGUGGUUUUCCCCUGAUAGUGCUAAGGGGGCCUGGAAGUUUGGACUGGGCAGAGCUCAACACAGCGUGGCAAAGUGGCUGUGGCUAGACUGCCUCUCUGGAUUCCUCGUUACUCAGCCGGGCAUCUCUGAGAGAAAUGCC	1.6
UACGUAGGUGGUUUUCCCCUGAUAGUGCUAAGGGGGCCUGGAAGUUUGGACUGGGCAGAGCUCAACACAGCGUGGCAAAGUGGCUGUGGCUAGACUGCCUCUCUGGAUUCCUCGUCACUCAGCAGGGCAUCUCUGAGAGAAGCGCC	1.31
UACGUAGGUGGUUUUCCCCUGAUAGCGCUAAGGGAGCCUGGAAGUUUGGACUGGGCAGAGCUCAACACAGCGUGGCAAAGUGGCUGUGGCUAGACUGCCUCUCUGGAUUCCUCGUCACUCAGCAGGGCAUCUCUGAGAGAAAUGCC	1.26
UAAGUAGGUGGUUUUCCCCUGAUAGUGCUAAGGGGGCCUGGAAGUUUGGACUGGGCAGAGCUCAACACAGCGUGGCAAAGUGGCUGUGGCUAGACUGCCUCUCUGGAUUCCUCGUCACUCAGCAGGACAUCUCUGAGAGAAAUGCC	0.43
UACGUAGGUGGUUUUCCCCUGAUAGUGCUAAGGGGGCCUGGUAGUUUGGACUGGGCAGAGCUCAACACAGCGCGGCAAAGUGGCUGUGGCUAGACUGCCUCUCUGGAUUCCUCGUCACUCAGCAGGGCAUCUCUGAGAGAAAUGCC	1.56
UACGUAGGUGGUUUUCCCCUGAUAGUGCUAAGGGGGCCUGGAAGUUUGGACUGGGCUGAGCUCAACACAGCGUGGCAAAGUGGCUGUGGCUAGACUGCCUCACUGGAUUCCUCGUCACUCAGCAGGGCAUCUCUGAGAGAAAUGCC	0.08
UACGUAGGUGGUUAUCCCCUGAUAGUGUUAAGGGGGCCUGGAAGUUUGGACUGGGCAGAGCUCAACACAGCGUGGCAAAGUGGCUGUGGCUAGACUGCCUCUCUGGAUUCCUCGUCACUCAGCAGGGCAUCUCUGAGAGAAAUGCC	0.66
UACGUAAGUGGUUUUCCCCUGAUAGUGCUAAGGGGGCCUGGAAGUUUGGACUGGGCAGAGCUCAACACAGCGUGGCAAAGUGGCUGUGGCUAGACUGCCUCUCUGGAUUCCUCGUCACUCAGCAGGGCAUCUCUGAGAGAAACGCC	1.29
UACGUAGGUGGUUUUCCCCUGAUAGUGCAAAGGGGGCCUGGAAGUUAGGACUGGGCAGAGCUCAACACAGCGUGGCAAAGUGGCUGUGGCUAGACUGCCUCUCUGGAUUCCUCGUCACUCAGCAGGGCAUCUCUGAGAGAAAUGCC	1.6
UACGUAGGUAGUUUUCCCCUGAUAGUGCUAAAGGGGCCUGGAAGUUUGGACUGGGCAGAGCUCAACACAGCGUGGCAAAGUGGCUGUGGCUAGACUGCCUCUCUGGAUUCCUCGUCACUCAGCAGGGCAUCUCUGAGAGAAAUGCC	0.73
UACGUAGGUGGUUUUCCCCUGAUAGUGCUAAGGGGGCCUGGAAGUUUGGACUGGGCAGAGCUCAACACAGCGUGGCAAAGUGGCUGUGGCUAGACUGCCUCUCUGGAUUCCUCAUCACUCAGCAGGGCGUCUCUGAGAGAAAUGCC	1.26
UACGUAGGUGGUUUUCCCCUGAUAGUGCUAAGGGGGCCUGGAAGUUCGGACUGGGCAGAGCUCAACACAGCGUGGCAAAGUGGCUGUGGCUAGACUGCCUCUCUAGAUUCCUCGUCACUCAGCAGGGCAUCUCUGAGAGAAAUGCC	1.45
UACGUAGGUGGUUUUCCCCUGAUGGUGCUAAGGGGGCCUGGAAGUUUGGACUGGGCAGAGCCCAACACAGCGUGGCAAAGUGGCUGUGGCUAGACUGCCUCUCUGGAUUCCUCGUCACUCAGCAGGGCAUCUCUGAGAGAAAUGCC	0.14
UACGUAGGUGGUUUUCCCCUGAUAGGGCUAAGGGGGCCUGGAAGUUUGGACUGGGCAGAGCUCAACACAGCGUGGCAAAGUGGCUGUGGCUAGACUGCCUCUCUGGAUUCUUCGUCACUCAGCAGGGCAUCUCUGAGAGAAAUGCC	0.63
UACGUAGGUGGUUUUCCCCUGAUAGUGCUAAGGGGGCCUGGAAGUUUGGACUGGGCAGAGCUCAACACAGCGUGGCAAAGUGGCUGUGGCUAGACUGCCUCUCUGGAUUCCUCGUCACUCAGCAGGGCAUCACUGAGAGAAACGCC	1.82
